Tests used:
[1] = biological target: NLuc-US28-VUN103 (human cytomegalovirus (HCMV)) (UniProt P69332); test: FRET or BRET; BRET-based saturation binding of Alexa647-labeled chemokine (0.1 pM-10 nM) to 100 ng membranes with NLuc-US28 constructs; HBSS with 0.05% BSA, 1 h at RT, 10 µM furimazine
[2] = biological target: NLuc-US28-Irr Nb (human cytomegalovirus (HCMV)) (UniProt P69332); test: as above
[3] = biological target: NLuc-US28-Nb7 (human cytomegalovirus (HCMV)) (UniProt P69332); test: as above
[4] = biological target: NLuc-US28 WT (human cytomegalovirus (HCMV)), P69332; test: as above
US28 wildtype [5] = biological target: T1, US28 wildtype (human cytomegalovirus (HCMV), UniProt P69332 1-354, Strain: VHL/E is stated for some constructs, but its sequence is neither printed nor among the candidates. The AD169 entry is used as the closest wild type, so a few strain-specific residues may diffe); test: radioligand binding; as a1, displacement of 125I-CCL5, membranes of HEK293T cells co-expressing US28 WT and the intrabody VUN103-mVenus; conditions: one partner purified
T1 chain: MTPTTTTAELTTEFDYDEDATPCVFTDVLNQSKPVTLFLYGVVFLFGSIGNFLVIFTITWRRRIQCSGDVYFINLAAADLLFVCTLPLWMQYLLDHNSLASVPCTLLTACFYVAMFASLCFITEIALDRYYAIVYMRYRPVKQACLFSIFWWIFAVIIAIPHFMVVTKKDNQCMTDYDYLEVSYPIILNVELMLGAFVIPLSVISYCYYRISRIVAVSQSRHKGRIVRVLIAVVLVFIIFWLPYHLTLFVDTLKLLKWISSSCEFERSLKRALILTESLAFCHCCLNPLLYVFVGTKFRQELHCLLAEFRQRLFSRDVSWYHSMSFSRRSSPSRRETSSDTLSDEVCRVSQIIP

US28 wildtype [6] = biological target: T1, US28 wildtype; test: radioligand binding; displacement of 100 pM 125I-CX3CL1 or 200 pM 125I-CCL5 from 3 µg US28-expressing membranes (no intrabody) by unlabeled ligand; HEPES binding buffer pH 7.4, 0.1 M NaCl, 0.5% BSA; 2 h at room temperature; GF/C filtration; conditions: one partner purified
US28 wildtype [7] = biological target: T1, US28 wildtype; test: radioligand binding; as a1, displacement of 125I-CCL5, membranes of HEK293T cells co-expressing US28 WT and the intrabody Nb7-mVenus; conditions: one partner purified

CX3CL1-Alexa647 (from UniProt P78423 25-341) (ligand)
pKD [1]: 9.6
pKD [2]: 9.6
pKD [3]: 10.4

B1: CX3CL1-Alexa647, P78423 25-341 (ligand)
chain: QHHGVTKCNITCSKMTSKIPVALLIHYQQNQASCGKRAIILETRQHRLFCADPKEQWVKDAMQHLDRQAAALTRNGGTFEKQIGEVKPRTTPAAGGMDESVVLEPEATGESSSLEPTPSSQEAQRALGTSPELPTGVTGSSGTRLPPTPKAQDGGPVGTELFRVPPVSTAATWQSSAPHQPGPSLWAEAKTSEAPSTQDPSTQASTASSPAPEENAPSEGQRVWGQGQSPRPENSLEREEMGPVPAHTDAFQDWGPGSMAHVSVVPVSSEGTPSREPVASGSWTPKAEEPIHATMDPQRLGVLITPVPDAQAATRRQ
modifications: here or on the partner: Alexa Fluor 647 label
pKD [4]: 9.6

B2: CX3CL1 (unlabeled) (ligand, UniProt P78423 25-341, looked up)
chain: B1 chain
notes: CX3CL1 (fractalkine), chemokine ligand of US28; also called fractalkine; source: bought: PeproTech (stated for the BRET assays)
pKi (US28 wildtype [5]): 9.7
pKi (US28 wildtype [6]): 9.9
pKi (US28 wildtype [7]): 10.7
